B1: HCN2, Q9UL51 (peptide)
chain: SARSRLSSNL
B2: AQP6, Q13520 (peptide)
chain: GSGAVEMESV
B3: BANF1, O75531 (peptide)
chain: CLREWCDAFL
B4: ERBB4, Q15303 (peptide)
chain: PPYRHRNTVV
B5: GRIN2C, Q14957 (peptide)
chain: RRISSLESEV
B6: DGKH, Q86XP1 (peptide)
chain: LGRSTPQSEV

Target: T1, APBA2_2, Q99767
T1 sequence (Q99767 654-744, limits assumed, looked up): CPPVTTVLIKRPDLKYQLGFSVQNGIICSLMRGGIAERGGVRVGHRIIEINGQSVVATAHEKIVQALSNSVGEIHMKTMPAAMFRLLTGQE
Test: holdup assay
Design: key: below the threshold = too weak to quantify, mostly under pKd 3.1 to 4
Conditions: plain residues with an end cap or a label only (N-terminal biotin on a linker: ado-ado)

Binder	pKd
B1	below the threshold
B2	below the threshold
B3	below the threshold
B4	below the threshold
B5	below the threshold
B6	below the threshold

Target: T2, ARHGAP21, Q5T5U3
T2 sequence (Q5T5U3 45-169, limits assumed, looked up): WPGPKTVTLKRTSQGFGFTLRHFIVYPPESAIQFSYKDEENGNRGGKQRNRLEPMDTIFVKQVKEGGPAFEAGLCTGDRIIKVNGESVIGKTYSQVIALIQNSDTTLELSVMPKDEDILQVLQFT
Test: holdup assay
Design: key: below the threshold = too weak to quantify, mostly under pKd 3.1 to 4
Conditions: plain residues with an end cap or a label only (N-terminal biotin on a linker: ado-ado)

Binder	pKd
B1	4.37
B2	3.91
B3	4.41
B4	4.08
B5	below the threshold
B6	4.1

Target: T3, CARD11, Q9BXL7
T3 sequence (Q9BXL7 662-765, limits assumed, looked up): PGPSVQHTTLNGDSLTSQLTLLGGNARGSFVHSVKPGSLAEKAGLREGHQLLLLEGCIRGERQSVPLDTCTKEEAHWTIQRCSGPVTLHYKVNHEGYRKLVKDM
Test: holdup assay
Design: key: below the threshold = too weak to quantify, mostly under pKd 3.1 to 4
Conditions: plain residues with an end cap or a label only (N-terminal biotin on a linker: ado-ado)

Binder	pKd
B1	below the threshold
B2	below the threshold
B3	below the threshold
B4	below the threshold
B5	below the threshold
B6	below the threshold

Target: T4, DFNB31_1, Q9P202
T4 sequence (Q9P202 135-233, limits assumed, looked up): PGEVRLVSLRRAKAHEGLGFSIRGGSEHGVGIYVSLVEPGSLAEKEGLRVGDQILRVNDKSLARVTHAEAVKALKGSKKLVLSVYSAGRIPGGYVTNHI
Test: holdup assay
Design: key: below the threshold = too weak to quantify, mostly under pKd 3.1 to 4
Conditions: plain residues with an end cap or a label only (N-terminal biotin on a linker: ado-ado)

Binder	pKd
B1	below the threshold
B2	below the threshold
B3	below the threshold
B4	3.57
B5	3.67
B6	3.52

Target: T5, DFNB31_2, Q9P202
T5 sequence (Q9P202 274-371, limits assumed, looked up): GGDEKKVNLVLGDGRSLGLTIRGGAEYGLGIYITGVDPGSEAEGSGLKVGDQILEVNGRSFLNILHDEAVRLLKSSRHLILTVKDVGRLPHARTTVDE
Test: holdup assay
Design: key: below the threshold = too weak to quantify, mostly under pKd 3.1 to 4
Conditions: plain residues with an end cap or a label only (N-terminal biotin on a linker: ado-ado)

Binder	pKd
B1	below the threshold
B2	below the threshold
B3	below the threshold
B4	below the threshold
B5	below the threshold
B6	below the threshold

Target: T6, DFNB31_3, Q9P202
T6 sequence (Q9P202 811-907, limits assumed, looked up): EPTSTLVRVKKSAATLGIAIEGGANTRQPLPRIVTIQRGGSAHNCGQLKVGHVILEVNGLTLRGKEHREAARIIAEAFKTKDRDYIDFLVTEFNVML
Test: holdup assay
Design: key: below the threshold = too weak to quantify, mostly under pKd 3.1 to 4
Conditions: plain residues with an end cap or a label only (N-terminal biotin on a linker: ado-ado)

Binder	pKd
B1	below the threshold
B2	below the threshold
B3	below the threshold
B4	below the threshold
B5	below the threshold
B6	below the threshold

Target: FRMPD4, Q14CM0
Test: holdup assay
Design: key: below the threshold = too weak to quantify, mostly under pKd 3.1 to 4
Conditions: plain residues with an end cap or a label only (N-terminal biotin on a linker: ado-ado)

Sequence of FRMPD4, Q14CM0 (Q14CM0 67-160): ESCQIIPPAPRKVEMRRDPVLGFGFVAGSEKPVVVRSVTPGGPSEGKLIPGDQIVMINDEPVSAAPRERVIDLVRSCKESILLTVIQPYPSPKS

Binder	pKd
B1	3.5
B2	below the threshold
B3	4.72
B4	below the threshold
B5	below the threshold
B6	below the threshold

Target: GIPC2, Q8TF65
Test: holdup assay
Design: key: below the threshold = too weak to quantify, mostly under pKd 3.1 to 4
Conditions: plain residues with an end cap or a label only (N-terminal biotin on a linker: ado-ado)

Sequence of GIPC2, Q8TF65 (Q8TF65 112-203): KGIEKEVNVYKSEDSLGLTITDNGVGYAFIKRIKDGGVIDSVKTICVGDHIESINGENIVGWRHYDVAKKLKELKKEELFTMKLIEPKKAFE

Binder	pKd
B1	below the threshold
B2	below the threshold
B3	below the threshold
B4	3.6
B5	3.65
B6	below the threshold

Target: T7, HTRA3, P83110
T7 sequence (P83110 354-453, limits assumed, looked up): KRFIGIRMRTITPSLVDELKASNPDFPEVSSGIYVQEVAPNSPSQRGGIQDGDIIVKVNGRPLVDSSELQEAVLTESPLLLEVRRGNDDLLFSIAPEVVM
Test: holdup assay
Design: key: below the threshold = too weak to quantify, mostly under pKd 3.1 to 4
Conditions: plain residues with an end cap or a label only (N-terminal biotin on a linker: ado-ado)

Binder	pKd
B1	below the threshold
B2	below the threshold
B3	4.17
B4	below the threshold
B5	below the threshold
B6	below the threshold

Target: IL16_3, Q14005
Test: holdup assay
Design: key: below the threshold = too weak to quantify, mostly under pKd 3.1 to 4
Conditions: plain residues with an end cap or a label only (N-terminal biotin on a linker: ado-ado)

Sequence of IL16_3, Q14005 (Q14005 1107-1207): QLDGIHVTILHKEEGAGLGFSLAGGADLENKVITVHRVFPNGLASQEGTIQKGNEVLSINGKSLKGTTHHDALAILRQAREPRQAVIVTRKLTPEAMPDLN

Binder	pKd
B1	below the threshold
B2	below the threshold
B3	below the threshold
B4	below the threshold
B5	below the threshold
B6	below the threshold

Target: Inadl_10, Q8NI35
Test: holdup assay
Design: key: below the threshold = too weak to quantify, mostly under pKd 3.1 to 4
Conditions: plain residues with an end cap or a label only (N-terminal biotin on a linker: ado-ado)

Sequence of Inadl_10, Q8NI35 (Q8NI35 1673-1763): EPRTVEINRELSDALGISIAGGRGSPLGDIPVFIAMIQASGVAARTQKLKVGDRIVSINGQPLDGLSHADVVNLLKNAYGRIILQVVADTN

Binder	pKd
B1	below the threshold
B2	below the threshold
B3	below the threshold
B4	below the threshold
B5	below the threshold
B6	below the threshold

Target: Inadl_4, Q8NI35
Test: holdup assay
Design: key: below the threshold = too weak to quantify, mostly under pKd 3.1 to 4
Conditions: plain residues with an end cap or a label only (N-terminal biotin on a linker: ado-ado)

Sequence of Inadl_4, Q8NI35 (Q8NI35 547-651): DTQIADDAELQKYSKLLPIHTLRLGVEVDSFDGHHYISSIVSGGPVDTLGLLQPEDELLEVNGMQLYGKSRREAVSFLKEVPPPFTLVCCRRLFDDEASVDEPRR

Binder	pKd
B1	below the threshold
B2	below the threshold
B3	below the threshold
B4	below the threshold
B5	below the threshold
B6	below the threshold

Target: T8, LNX2_2, Q8N448
T8 sequence (Q8N448 334-432, limits assumed, looked up): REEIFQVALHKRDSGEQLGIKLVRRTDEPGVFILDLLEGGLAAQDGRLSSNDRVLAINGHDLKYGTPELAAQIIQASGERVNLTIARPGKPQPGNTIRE
Test: holdup assay
Design: key: below the threshold = too weak to quantify, mostly under pKd 3.1 to 4
Conditions: plain residues with an end cap or a label only (N-terminal biotin on a linker: ado-ado)

Binder	pKd
B1	below the threshold
B2	3.49
B3	below the threshold
B4	4.69
B5	below the threshold
B6	below the threshold

Target: MAGI2_6, Q86UL8
Test: holdup assay
Design: key: below the threshold = too weak to quantify, mostly under pKd 3.1 to 4
Conditions: plain residues with an end cap or a label only (N-terminal biotin on a linker: ado-ado)

Sequence of MAGI2_6, Q86UL8 (Q86UL8 1141-1229): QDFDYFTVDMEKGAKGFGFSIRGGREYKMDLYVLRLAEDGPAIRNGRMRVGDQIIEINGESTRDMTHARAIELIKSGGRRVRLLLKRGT

Binder	pKd
B1	below the threshold
B2	3.51
B3	4.36
B4	below the threshold
B5	4.31
B6	below the threshold

Target: T9, MPDZ_12, O75970
T9 sequence (O75970 1857-1958, limits assumed, looked up): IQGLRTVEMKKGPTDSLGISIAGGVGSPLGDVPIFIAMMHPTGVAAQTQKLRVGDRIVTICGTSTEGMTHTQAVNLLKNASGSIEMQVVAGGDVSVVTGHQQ
Test: holdup assay
Design: key: below the threshold = too weak to quantify, mostly under pKd 3.1 to 4
Conditions: plain residues with an end cap or a label only (N-terminal biotin on a linker: ado-ado)

Binder	pKd
B1	below the threshold
B2	below the threshold
B3	3.67
B4	below the threshold
B5	below the threshold
B6	below the threshold

Target: NHERF4_2, Q86UT5
Test: holdup assay
Design: key: below the threshold = too weak to quantify, mostly under pKd 3.1 to 4
Conditions: plain residues with an end cap or a label only (N-terminal biotin on a linker: ado-ado)

Sequence of NHERF4_2, Q86UT5 (Q86UT5 220-308): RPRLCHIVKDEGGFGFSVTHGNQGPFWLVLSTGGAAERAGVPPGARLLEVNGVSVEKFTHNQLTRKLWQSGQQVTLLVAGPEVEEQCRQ

Binder	pKd
B1	below the threshold
B2	below the threshold
B3	below the threshold
B4	below the threshold
B5	below the threshold
B6	below the threshold

Target: NOS1, P29475
Test: holdup assay
Design: key: below the threshold = too weak to quantify, mostly under pKd 3.1 to 4
Conditions: plain residues with an end cap or a label only (N-terminal biotin on a linker: ado-ado)

Sequence of NOS1, P29475 (P29475 9-101): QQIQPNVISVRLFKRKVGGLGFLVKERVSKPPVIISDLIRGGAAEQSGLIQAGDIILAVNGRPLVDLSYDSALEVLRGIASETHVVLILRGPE

Binder	pKd
B1	below the threshold
B2	below the threshold
B3	below the threshold
B4	3.64
B5	3.96
B6	below the threshold

Target: PICK1, Q9NRD5
Test: holdup assay
Design: key: below the threshold = too weak to quantify, mostly under pKd 3.1 to 4
Conditions: plain residues with an end cap or a label only (N-terminal biotin on a linker: ado-ado)

Sequence of PICK1, Q9NRD5 (Q9NRD5 17-115): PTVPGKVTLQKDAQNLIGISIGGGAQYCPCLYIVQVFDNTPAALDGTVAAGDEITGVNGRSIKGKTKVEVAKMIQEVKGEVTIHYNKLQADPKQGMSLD

Binder	pKd
B1	below the threshold
B2	below the threshold
B3	below the threshold
B4	below the threshold
B5	below the threshold
B6	below the threshold

Target: PTPN3, P26045
Test: holdup assay
Design: key: below the threshold = too weak to quantify, mostly under pKd 3.1 to 4
Conditions: plain residues with an end cap or a label only (N-terminal biotin on a linker: ado-ado)

Sequence of PTPN3, P26045 (P26045 505-587): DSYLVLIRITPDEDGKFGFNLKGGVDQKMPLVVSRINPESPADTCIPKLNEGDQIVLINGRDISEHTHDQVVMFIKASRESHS

Binder	pKd
B1	4.16
B2	below the threshold
B3	4.47
B4	3.89
B5	4.98
B6	4.12

Target: T10, RAPGEF6, Q8TEU7
T10 sequence (Q8TEU7 525-625, limits assumed, looked up): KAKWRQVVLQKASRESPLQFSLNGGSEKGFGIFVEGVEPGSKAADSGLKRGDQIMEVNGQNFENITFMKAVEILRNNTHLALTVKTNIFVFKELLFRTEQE
Test: holdup assay
Design: key: below the threshold = too weak to quantify, mostly under pKd 3.1 to 4
Conditions: plain residues with an end cap or a label only (N-terminal biotin on a linker: ado-ado)

Binder	pKd
B1	below the threshold
B2	below the threshold
B3	3.47
B4	below the threshold
B5	below the threshold
B6	below the threshold

Target: SCRIB_1, Q14160
Test: holdup assay
Design: key: below the threshold = too weak to quantify, mostly under pKd 3.1 to 4
Conditions: plain residues with an end cap or a label only (N-terminal biotin on a linker: ado-ado)

Sequence of SCRIB_1, Q14160 (Q14160 718-814): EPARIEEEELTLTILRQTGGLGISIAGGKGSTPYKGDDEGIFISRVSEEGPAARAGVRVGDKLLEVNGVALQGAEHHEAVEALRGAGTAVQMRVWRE

Binder	pKd
B1	4.36
B2	below the threshold
B3	below the threshold
B4	3.92
B5	4.69
B6	3.77

Target: T11, SNTB1, Q13884
T11 sequence (Q13884 107-205, limits assumed, looked up): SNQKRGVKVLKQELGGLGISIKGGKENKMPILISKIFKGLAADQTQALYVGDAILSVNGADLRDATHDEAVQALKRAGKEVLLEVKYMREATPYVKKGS
Test: holdup assay
Design: key: below the threshold = too weak to quantify, mostly under pKd 3.1 to 4
Conditions: plain residues with an end cap or a label only (N-terminal biotin on a linker: ado-ado)

Binder	pKd
B1	below the threshold
B2	below the threshold
B3	below the threshold
B4	5
B5	4.64
B6	4.03

Target: T12, SNTG1, Q9NSN8
T12 sequence (Q9NSN8 52-150, limits assumed, looked up): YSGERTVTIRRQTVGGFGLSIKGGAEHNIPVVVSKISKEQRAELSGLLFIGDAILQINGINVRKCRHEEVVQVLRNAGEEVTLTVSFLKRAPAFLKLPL
Test: holdup assay
Design: key: below the threshold = too weak to quantify, mostly under pKd 3.1 to 4
Conditions: plain residues with an end cap or a label only (N-terminal biotin on a linker: ado-ado)

Binder	pKd
B1	below the threshold
B2	below the threshold
B3	below the threshold
B4	below the threshold
B5	5.11
B6	3.96

Target: SNX27, Q96L92
Test: holdup assay
Design: key: below the threshold = too weak to quantify, mostly under pKd 3.1 to 4
Conditions: plain residues with an end cap or a label only (N-terminal biotin on a linker: ado-ado)

Binder	pKd
B1	4.3
B2	3.7
B3	4.58
B4	4.42
B5	4.97
B6	3.89

Target: T13, TJP3_3, O95049
T13 sequence (O95049 375-456, limits assumed, looked up): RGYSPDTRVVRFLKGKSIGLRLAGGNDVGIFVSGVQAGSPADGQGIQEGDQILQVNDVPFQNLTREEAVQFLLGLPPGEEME
Test: holdup assay
Design: key: below the threshold = too weak to quantify, mostly under pKd 3.1 to 4
Conditions: plain residues with an end cap or a label only (N-terminal biotin on a linker: ado-ado)

Binder	pKd
B1	below the threshold
B2	below the threshold
B3	3.86
B4	below the threshold
B5	below the threshold
B6	below the threshold

Reference: paper PMC9482650, “Quantitative fragmentomics allow affinity mapping of interactomes” (Nature Communications, 2022)
